{
  "source": "paper PMC6182170",
  "about": "“A protein–protein interaction underlies the molecular basis for substrate recognition by an adenosine-to-inosine RNA-editing enzyme”",
  "binders": {"B1": {"name": "lam-2 3'UTR 46 bp dsRNA (dsRNA)", "RNA 1": "AGACACACAUACAAAAUUUACAAAAAUUGUUAAUUGACAAAAUAC", "RNA 2": "GUGUUUUGCCAAUUAACGAUUUUUUGUAAAUUUUAUAUGUGUCUCU"}},
  "molecular_target": "T1, ADR-1 dsRBD2 mutant (ds2) (Caenorhabditis elegans, UniProt Q9U3D6 1-964, K584E;K585A;K588A)",
  "T1 sequence": "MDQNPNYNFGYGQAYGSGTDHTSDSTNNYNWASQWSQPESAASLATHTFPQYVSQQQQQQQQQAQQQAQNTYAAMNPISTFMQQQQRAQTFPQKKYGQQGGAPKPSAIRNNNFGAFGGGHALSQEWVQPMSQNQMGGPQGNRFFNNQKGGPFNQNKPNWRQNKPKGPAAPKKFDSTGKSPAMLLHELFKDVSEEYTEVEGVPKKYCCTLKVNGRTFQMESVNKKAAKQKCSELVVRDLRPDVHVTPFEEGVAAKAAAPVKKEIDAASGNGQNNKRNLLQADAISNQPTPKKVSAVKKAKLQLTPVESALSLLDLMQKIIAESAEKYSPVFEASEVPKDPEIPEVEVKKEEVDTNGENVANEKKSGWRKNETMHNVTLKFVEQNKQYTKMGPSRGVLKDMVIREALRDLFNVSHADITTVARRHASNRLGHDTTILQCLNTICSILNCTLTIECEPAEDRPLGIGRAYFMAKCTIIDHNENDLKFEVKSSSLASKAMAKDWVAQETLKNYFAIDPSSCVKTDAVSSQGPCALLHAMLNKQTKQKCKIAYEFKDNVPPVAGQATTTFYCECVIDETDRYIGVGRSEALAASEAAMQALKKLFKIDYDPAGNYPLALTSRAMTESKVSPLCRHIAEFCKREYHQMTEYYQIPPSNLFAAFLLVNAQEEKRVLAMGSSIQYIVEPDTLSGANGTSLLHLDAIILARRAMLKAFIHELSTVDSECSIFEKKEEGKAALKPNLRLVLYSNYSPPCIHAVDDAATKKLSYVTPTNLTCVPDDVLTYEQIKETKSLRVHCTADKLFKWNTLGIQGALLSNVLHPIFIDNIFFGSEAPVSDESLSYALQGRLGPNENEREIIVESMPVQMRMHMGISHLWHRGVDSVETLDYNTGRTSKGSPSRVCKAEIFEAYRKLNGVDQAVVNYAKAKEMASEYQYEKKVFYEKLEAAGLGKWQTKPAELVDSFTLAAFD",
  "experiment": "EMSA; apparent Kd; text calls binding similar to WT; EMSA: 20 pM dsRNA, 50 mM KCl, 10 mM Tris-HCl pH 8.0, 10% glycerol, 1 mM MgCl2, 0.5 mM DTT, on ice 30 min; native 6% gel, 0.5x TBE, 4 C",
  "conditions": "protein: recombinant; tags: N-terminal 6xHis (TEV site); label: 5' 32P on ssRNAs (PNK); imperfect duplex; printed strands 45 and 46 nt",
  "data": [
    {"binder": "B1", "values": [
      {"measurement": "Kd", "result": "4.67 ± 0.7", "unit": "nM"}
    ]}
  ]
}
